Measurements taken from the supplement of paper PMC5998384.

Legend:
HeLa Kyoto [1] = assay: melting temperature (median over replicates), in situ; higher = more thermally stable
HeLa Kyoto [2] = assay: solubility in G1/S (NP-40 vs SDS abundance) (log2 ratio); higher = more soluble; conditions: cell cycle stage: G1/S
HeLa Kyoto [3] = assay: solubility change mitosis vs G1/S (difference of NP-40 vs SDS log2 ratios) (log2 ratio difference); higher = more soluble in mitosis
HeLa Kyoto [4] = assay: thermal stability score vs G1/S (z-score of summed log2 fold changes over temperatures); higher = more thermally stable than in G1/S
[5] = cell cycle stage: early G1 (4.5 h after nocodazole release)
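For melting temperature (median over replicates), in situ in this document: HeLa Kyoto cells synchronized by double thymidine or nocodazole block, proteins quantified by TMT10plex mass spectrometry, three independent biological replicates.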
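For solubility change mitosis vs G1/S (difference of NP-40 vs SDS log2 ratios) in this document: synchronized HeLa Kyoto cells (double thymidine block for G1/S, nocodazole release for mitosis), protein amounts in NP-40 versus SDS lysates quantified by mass spectrometry, three biological replicates.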
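For solubility in G1/S (NP-40 vs SDS abundance) in this document: HeLa Kyoto cells arrested at G1/S by double thymidine block, proteins quantified by TMT10plex mass spectrometry in mild NP-40 versus SDS extracts, three biological replicates.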
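For thermal stability score vs G1/S (z-score of summed log2 fold changes over temperatures) in this document: synchronized HeLa Kyoto cells, proteins quantified by TMT10plex mass spectrometry, three biological replicates, mitosis taken 0.5 h after nocodazole release, G1/S directly after double thymidine block.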

## MLFIFNFLFSPLPTPALICILTFGAAIFLWLITRPQPVLPLLDLNNQSVGIEGGARKGVSQKNNDLTSCCFSDAKTMYEVFQRGLAVSDNGPCLGYRKPNQPYRWLSYKQVSDRAEYLGSCLLHKGYKSSPDQFVGIFAQNRPEWIISELACYTYSMVAVPLYDTLGPEAIVHIVNKADIAMVICDTPQKALVLIGNVEKGFTPSLKVIILMDPFDDDLKQRGEKSGIEILSLYDAENLGKEHFRKPVPPSPEDLSVICFTSGTTGDPKGAMITHQNIVSNAAAFLKCVEHAYEPTPDDVAISYLPLAHMFERIVQAVVYSCGARVGFFQGDIRLLADDMKTLKPTLFPAVPRLLNRIYDKVQNEAKTPLKKFLLKLAVSSKFKELQKGIIRHDSFWDKLIFAKIQDSLGGRVRVIVTGAAPMSTSVMTFFRAAMGCQVYEAYGQTECTGGCTFTLPGDWTSGHVGVPLACNYVKLEDVADMNYFTVNNEGEVCIKGTNVFKGYLKDPEKTQEALDSDGWLHTGDIGRWLPNGTLKIIDRKKNIFKLAQGEYIAPEKIENIYNRSQPVLQIFVHGESLRSSLVGVVVPDTDVLPSFAAKLGVKGSFEELCQNQVVREAILEDLQKIGKESGLKTFEQVKAIFLHPEPFSIENGLLTPTLKAKRGELSKYFRTQIDSLYEHIQD [ACSL5]
HeLa Kyoto [1]; cell cycle stage: G1/S
  melting temperature: 51.8 °C
HeLa Kyoto [1]; cell cycle stage: mitosis
  melting temperature: 51.1 °C
HeLa Kyoto [2]
  solubility in G1/S (log2): -0.0641
HeLa Kyoto [3]
  solubility change mitosis (log2): -0.0802
HeLa Kyoto [4]; [5]
  thermal stability score: -0.104
HeLa Kyoto [4]; cell cycle stage: mitosis
  thermal stability score: -0.53

## MLFLALGSPWAVELPLCGRRTALCAAAALRGPRASVSRASSSSGPSGPVAGWSTGPSGAARLLRRPGRAQIPVYWEGYVRFLNTPSDKSEDGRLIYTGNMARAVFGVKCFSYSTSLIGLTFLPYIFTQNNAISESVPLPIQIIFYGIMGSFTVITPVLLHFITKGYVIRLYHEATTDTYKAITYNAMLAETSTVFHQNDVKIPDAKHVFTTFYAKTKSLLVNPVLFPNREDYIHLMGYDKEEFILYMEETSEEKRHKDDK [TMEM70]
HeLa Kyoto [1]; cell cycle stage: G1/S
  melting temperature: 54.1 °C
HeLa Kyoto [1]; cell cycle stage: mitosis
  melting temperature: 53.4 °C
HeLa Kyoto [2]
  solubility in G1/S (log2): -0.0239
HeLa Kyoto [3]
  solubility change mitosis (log2): -0.344
HeLa Kyoto [4]; [5]
  thermal stability score: 0.217
HeLa Kyoto [4]; cell cycle stage: mitosis
  thermal stability score: -1.65

## MLFYSFFKSLVGKDVVVELKNDLSICGTLHSVDQYLNIKLTDISVTDPEKYPHMLSVKNCFIRGSVVRYVQLPADEVDTQLLQDAARKEALQQKQ [LSM2]
HeLa Kyoto [1]; cell cycle stage: G1/S
  melting temperature: 59.9 °C
HeLa Kyoto [1]; cell cycle stage: mitosis
  melting temperature: 57.5 °C
HeLa Kyoto [2]
  solubility in G1/S (log2): -0.0676
HeLa Kyoto [3]
  solubility change mitosis (log2): 0.0659
HeLa Kyoto [4]; [5]
  thermal stability score: -1.17
HeLa Kyoto [4]; cell cycle stage: mitosis
  thermal stability score: -1.99

## MLGMIKNSLFGSVETWPWQVLSKGDKEEVAYEERACEGGKFATVEVTDKPVDEALREAMPKVAKYAGGTNDKGIGMGMTVPISFAVFPNEDGSLQKKLKVWFRIPNQFQSDPPAPSDKSVKIEEREGITVYSMQFGGYAKEADYVAQATRLRAALEGTATYRGDIYFCTGYDPPMKPYGRRNEIWLLKT [HEBP1]
HeLa Kyoto [1]; cell cycle stage: G1/S
  melting temperature: 52.9 °C
HeLa Kyoto [1]; cell cycle stage: mitosis
  melting temperature: 53.3 °C
HeLa Kyoto [2]
  solubility in G1/S (log2): 0.27
HeLa Kyoto [3]
  solubility change mitosis (log2): 0.0399
HeLa Kyoto [4]; [5]
  thermal stability score: -1.08
HeLa Kyoto [4]; cell cycle stage: mitosis
  thermal stability score: -2.04
